B1: HDV Ribozyme (parent)
chain: GGCCGGCAUGGUCCCAGCCUCCUCGCUGGCGCCGGCUGGGCAACAUUCCGAGGGGACCGUCCCCUCGGUAAUGGCGAAUGGGACCCA

Variants of: B1
Test: self-cleavage, relative activity (ratio to wild type); higher = more cleavage; co-transcriptional
C44A G53U gave a self-cleavage of 0.929. C49U A71G showed a self-cleavage of 1.16. Work on G1A G82C yielded a self-cleavage of 0.133. G5A G82A gave a self-cleavage of 0.0554. In the case of G25U G74A, the self-cleavage is reported as 0.0707. In the case of G54U A78G, the self-cleavage is reported as 0.534. In the case of G31U U37C, the self-cleavage is reported as 0.415. Variant C7A C24U has a self-cleavage of 0.306. In the case of G52A G59U, the self-cleavage is reported as 0.865. For A51C G52C, the self-cleavage was 0.332. In the case of G17C A87G, the self-cleavage is reported as 0.244. In the case of C24A A42G, the self-cleavage is reported as 0.166. In the case of A16U U27A, the self-cleavage is reported as 0.697. In the case of G31C G59A, the self-cleavage is reported as 0.483. Variant U9A C49U has a self-cleavage of 0.831. Variant G11C C13U has a self-cleavage of 0.0852. For C75G C86A, the self-cleavage was 0.147. For G1C C75G, the self-cleavage was 0.178. For G31A U65G, the self-cleavage was 0.34. Work on A45U U47C yielded a self-cleavage of 0.772. Variant C63U C64G has a self-cleavage of 0.809. For G10A C86A, the self-cleavage was 0.82. Work on G39A U65A yielded a self-cleavage of 0.396. Variant C63U U72A has a self-cleavage of 0.864. For U12G A77G, the self-cleavage was 0.443. In the case of C66G A78U, the self-cleavage is reported as 0.48. With A42C A51C the self-cleavage was 0.0594. Work on C24G G73U yielded a self-cleavage of 0.0841. Variant G68C G80U has a self-cleavage of 0.322. For C58G C62U, the self-cleavage was 0.73. U9A G17C showed a self-cleavage of 0.297. For G31C U65G, the self-cleavage was 0.48. Variant G5A G68U has a self-cleavage of 0.146. With G25A U72C the self-cleavage was 0.227. Variant C14G C63U has a self-cleavage of 0.9. With A51U G52C the self-cleavage was 0.849. Variant C32A G73U has a self-cleavage of 0.0959. Variant C15A C64G has a self-cleavage of 0.81. Work on G59C C62U yielded a self-cleavage of 1.12. Work on C24G A70U yielded a self-cleavage of 0.0627. C30G G40C showed a self-cleavage of 0.106. In the case of C19G C57U, the self-cleavage is reported as 0.0528. In the case of U23A C49A, the self-cleavage is reported as 0.538. For C44G U60A, the self-cleavage was 0.798. In the case of G34C A70G, the self-cleavage is reported as 0.0898. With U23G C62U the self-cleavage was 0.403. Work on C41A C49A yielded a self-cleavage of 0.519. Work on G54A A78U yielded a self-cleavage of 0.245. U37C U72C gave a self-cleavage of 0.462. C19U G80U showed a self-cleavage of 0.0642. In the case of C19A C21A, the self-cleavage is reported as 0.142. With G1C C57G the self-cleavage was 0.222. In the case of C22U C33A, the self-cleavage is reported as 0.0692. Variant U72C G81C has a self-cleavage of 0.271. In the case of U72C G81A, the self-cleavage is reported as 0.356. A43G G74C gave a self-cleavage of 0.0791. With U79C C85U the self-cleavage was 0.499. For C3U G17A, the self-cleavage was 0.361. With C7U G54A the self-cleavage was 0.787. Variant C4A G34C has a self-cleavage of 0.261. Work on C19G A71U yielded a self-cleavage of 0. Variant G1U G10A has a self-cleavage of 0.387. Variant C13G A51G has a self-cleavage of 0.123. For C18A G35U, the self-cleavage was 0.0604. For A42U G80U, the self-cleavage was 0.138. C19U G35A showed a self-cleavage of 0.234. With C61U G68C the self-cleavage was 0.581. Work on C15U U23C yielded a self-cleavage of 1.11. In the case of G11C A77G, the self-cleavage is reported as 0.138. Variant G1U U27G has a self-cleavage of 0.522. For C63G G81A, the self-cleavage was 0.453. In the case of G6C C75A, the self-cleavage is reported as 0.0723. With G2U U60A the self-cleavage was 0.0396. Work on C33U A43C yielded a self-cleavage of 0.248. Work on A83G C84G yielded a self-cleavage of 0.95. For C14A G17A, the self-cleavage was 0. In the case of A77C A87C, the self-cleavage is reported as 0.391. G34U G80U showed a self-cleavage of 0.128. In the case of G68C A87C, the self-cleavage is reported as 0.73. C26U G39U showed a self-cleavage of 0.936. In the case of G76A G80C, the self-cleavage is reported as 0.0719. For U23A C36A, the self-cleavage was 0.177. C7G A51C showed a self-cleavage of 0.437. A43U C44U gave a self-cleavage of 1.07. G10U C15U gave a self-cleavage of 0.445. With C22U G34A the self-cleavage was 0.0468. For G17C C61U, the self-cleavage was 0.383. Work on U37G G74C yielded a self-cleavage of 0.0361. Work on U9C C58U yielded a self-cleavage of 0.886. In the case of C3G C32G, the self-cleavage is reported as 0.0282. For C14U C84A, the self-cleavage was 0.643. C64A G74A showed a self-cleavage of 0.295. Work on C18A G28U yielded a self-cleavage of 0. Variant A8U C26A has a self-cleavage of 0.997. G55U A70U showed a self-cleavage of 1.02. For C24U U47G, the self-cleavage was 0.266. With U20A A71U the self-cleavage was 0.0504. G74C A78G showed a self-cleavage of 0.113. In the case of U9G C57G, the self-cleavage is reported as 1.19. G34A C48U showed a self-cleavage of 0.132. In the case of G34A G50U, the self-cleavage is reported as 0.187. G54A C64A showed a self-cleavage of 0.453. Work on C4A C58G yielded a self-cleavage of 0.259. For G67U G68C, the self-cleavage was 0.962. In the case of U46A G54C, the self-cleavage is reported as 0.706. Work on C32G G80U yielded a self-cleavage of 0.0831. Work on G40U G68U yielded a self-cleavage of 0.858. G5A G73C showed a self-cleavage of 0.268. In the case of U12C C58U, the self-cleavage is reported as 0.222. C15A C32A gave a self-cleavage of 0.151. For C15A C32G, the self-cleavage was 0.107. For U27C A78U, the self-cleavage was 0.297. For C14G A16G, the self-cleavage was 0.554. Work on G11A G68U yielded a self-cleavage of 0.249. Work on G31C A83G yielded a self-cleavage of 0.219. With G10U C66U the self-cleavage was 0.728. C7A C86G showed a self-cleavage of 0.571. C41A A78C gave a self-cleavage of 0.185. C66A G82A showed a self-cleavage of 0.356. With C33A the self-cleavage was 0.29. With U9A A78C the self-cleavage was 0.359. Work on G17C G50C yielded a self-cleavage of 0.324. G17C G39C gave a self-cleavage of 0.0462. Work on C19A A45G yielded a self-cleavage of 0.0369. In the case of G29C G54U, the self-cleavage is reported as 0.204. Variant C14G G82C has a self-cleavage of 0.525. With G53C G74C the self-cleavage was 0.19. Work on G53C G82C yielded a self-cleavage of 0.0923. G2U C36G showed a self-cleavage of 0.185. C18A A70G gave a self-cleavage of 0. A16U G54U gave a self-cleavage of 0.771. Variant A43G G68C has a self-cleavage of 0.253. For C21G G29A, the self-cleavage was 0. For A16G C85G, the self-cleavage was 0.965. Variant A8G A16G has a self-cleavage of 1.14. A45C G82C showed a self-cleavage of 0.256. For G2A C3U, the self-cleavage was 0.567. With G50U A87U the self-cleavage was 0.85. For U12A G59U, the self-cleavage was 0.214. In the case of C57G C61A, the self-cleavage is reported as 1.03. C30G C64G showed a self-cleavage of 0.0396. For C19A C49A, the self-cleavage was 0.0504. In the case of C75A A78U, the self-cleavage is reported as 0.0852. For U20C G55U, the self-cleavage was 0.199. With G11U C26A the self-cleavage was 0.689. Work on C24G C75U yielded a self-cleavage of 0.0554. With C18U G52C the self-cleavage was 0.774. C7G C85G showed a self-cleavage of 0.237. In the case of G54U G81A, the self-cleavage is reported as 0.306. Work on G54U C75U yielded a self-cleavage of 0.189. C24A G67U showed a self-cleavage of 0.831. Variant C30U A70C has a self-cleavage of 0.525. For C24A U37A, the self-cleavage was 0.145. In the case of C24A U37G, the self-cleavage is reported as 0.142. U27A C66G showed a self-cleavage of 0.755. For C66A C84U, the self-cleavage was 0.696. For G6A U79G, the self-cleavage was 0.227. In the case of G25U A45C, the self-cleavage is reported as 0.0831. For G39C C62U, the self-cleavage was 0.237. C36G G73U showed a self-cleavage of 0.0326. With C15A G53C the self-cleavage was 0.674. Work on G39A C64G yielded a self-cleavage of 0.492. A16G C33A showed a self-cleavage of 0.268. In the case of C13U G25C, the self-cleavage is reported as 0.0723. With C4A C41U the self-cleavage was 0.163. For A42U U46G, the self-cleavage was 0.287. Work on C32G G40C yielded a self-cleavage of 0.0755.
